Target: human growth hormone (hGH) with the N-terminal phenylalanine, expressed and secreted from plasmid phGH4R (human) (UniProt P01241)
Assay: cell-based or functional assay

Sequence of human growth hormone (hGH) with the N-terminal phenylalanine, expressed and secreted from plasmid phGH4R (human) (P01241 27-217): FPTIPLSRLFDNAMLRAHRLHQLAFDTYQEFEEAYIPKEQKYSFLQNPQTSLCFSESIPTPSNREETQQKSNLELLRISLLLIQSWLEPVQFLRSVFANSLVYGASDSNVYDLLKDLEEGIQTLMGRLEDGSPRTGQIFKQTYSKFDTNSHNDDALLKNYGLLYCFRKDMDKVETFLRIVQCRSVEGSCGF

Area % des-phe hGH, control strain lysate, 37° C., 0 h (LC-MS): 0.36 Area %
Area % des-phe hGH, control strain lysate, 37° C., 15 h (LC-MS): 46.8 Area %
Area % des-phe hGH, control strain lysate, 37° C., 24 h (LC-MS): 55.3 Area %
Area % des-phe hGH, control strain lysate, RT, 0 h (LC-MS): 0.36 Area %
Area % des-phe hGH, control strain lysate, RT, 15 h (LC-MS): 1.24 Area %
Area % des-phe hGH, control strain lysate, RT, 24 h (LC-MS): 2.15 Area %
Area % des-phe hGH, control strain lysate, RT, 42 h (LC-MS): 3 Area %
B1: native-sequence aminopeptidase b2324 (product of the E. coli chromosomal yfcK gene) (enzyme)
chain: MRSLTHIAKIEPPPVRRVTYVKHYSIQPANLEFNAEGTPVSRDFDDVYFSNDNGLEETRYVFLGGNQLEVRFPEHPHPLFVVAESGFGTGLNFLTLWQAFDQFREAHPQAQLQRLHFISFEKFPLTRADLALAHQHWPELAPWAEQLQAQWPMPLPGCHRLLLDEGRVTLDLWFGDINELTSQLDDSLNQKVDAWFLDGFAPAKNPDMWTQNLFNAMARLARPGGTLATFTSAGFVRRGLQDAGFTMQKRKGFGRKREMLCGVMEQTLPLPCSAPWFNRTGSSKREAAIIGGGIASALLSLALLRRGWQVTLYCADEAPALGASGNRQGALYPLLSKHDEALNRFFSNAFTFARRFYDQLPVKFDHDWCGVTQLGWDEKSQHKIAQMLSMDLPAELAVAVEANAVEQITGVATNCSGITYPQGGWLCPAELTRNVLELAQQQGLQIYYQYQLQNLSRKDDCWLLNFAGDQQATHSVVVLANGHQISRFSQTSTLPVYSVAGQVSHIPTTPELAELKQVLCYDGYLTPQNPANQHHCIGASYHRGSEDTAYSEDDQQQNRQRLIDCFPQAQWAKEVDVSDKEARCGVRCATRDHLPMVGNVPDYEATLVEYASLAEQKDEAVSAPVFDDLFMFAALGSRGLCSAPLCAEILAAQMSDEPIPMDASTLAALNPNRLWVRKLLKGKAVKAG

— US20030124664A1
